Among the data in article PMC10681739, “High-throughput data and modeling reveal insights into the mechanisms of cooperative DNA-binding by transcription factor proteins” are binding signal values, retold here.

The chains are these.
T1: ETS1 (Homo sapiens, UniProt P14921)
T1 sequence: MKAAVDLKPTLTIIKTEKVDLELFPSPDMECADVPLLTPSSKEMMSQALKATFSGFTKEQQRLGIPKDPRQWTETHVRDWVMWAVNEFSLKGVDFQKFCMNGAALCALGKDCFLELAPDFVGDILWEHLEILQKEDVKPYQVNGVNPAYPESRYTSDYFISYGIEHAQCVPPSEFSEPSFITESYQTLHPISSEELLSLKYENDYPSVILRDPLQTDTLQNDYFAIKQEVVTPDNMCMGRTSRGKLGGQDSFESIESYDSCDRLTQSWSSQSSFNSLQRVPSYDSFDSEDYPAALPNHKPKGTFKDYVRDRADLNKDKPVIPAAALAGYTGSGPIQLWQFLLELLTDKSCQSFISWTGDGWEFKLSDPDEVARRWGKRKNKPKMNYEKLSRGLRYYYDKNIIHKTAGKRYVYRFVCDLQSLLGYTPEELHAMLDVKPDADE

B1: Table S2 C row 194 (dsDNA)
DNA 1: TCGGGAACGTGGGGCTGCGGCCGCCCATGGTGCCCC
DNA 2: GGGGCACCATGGGCGGCCGCAGCCCCACGTTCCCGA
B2: Table S2 C row 45 (dsDNA)
DNA 1: GCGGGGTTGGGAGGCTGCGGGAGTTTGCGTCCCCTC
DNA 2: GAGGGGACGCAAACTCCCGCAGCCTCCCAACCCCGC
B3: Table S2 C row 160 (dsDNA)
DNA 1: GCCAGCCTGGGCCGGGCCACAAGAACAAGGAATGTT
DNA 2: AACATTCCTTGTTCTTGTGGCCCGGCCCAGGCTGGC
B4: Table S2 C row 184 (dsDNA)
DNA 1: CCAGCTAAGCGAGGGGCCGCAGGGAGCGCGGCCTCG
DNA 2: CGAGGCCGCGCTCCCTGCGGCCCCTCGCTTAGCTGG
B5: Table S2 C row 122 (dsDNA)
DNA 1: AGAGACAGTAGCAGCCGCGGTGACTGGCGGCCTCCT
DNA 2: AGGAGGCCGCCAGTCACCGCGGCTGCTACTGTCTCT
B6: Table S2 C row 106 (dsDNA)
DNA 1: ATTCACTCATCCCTCACCACAGCCAGCTGCTTGAGA
DNA 2: TCTCAAGCAGCTGGCTGTGGTGAGGGATGAGTGAAT
B7: Table S2 C row 95 (dsDNA)
DNA 1: TGTCTCATCAGCCAGGCCACAAACGCGATGTTTACA
DNA 2: TGTAAACATCGCGTTTGTGGCCTGGCTGATGAGACA
B8: Table S2 C row 19 (dsDNA)
DNA 1: GACAAATCAAATGCCACCGCAGAGTTTACTCGAGTT
DNA 2: AACTCGAGTAAACTCTGCGGTGGCATTTGATTTGTC
B9: Table S2 C row 29 (dsDNA)
DNA 1: TGGCCATGGCCTATGACCGCTATGTGGCCATCTGCT
DNA 2: AGCAGATGGCCACATAGCGGTCATAGGCCATGGCCA
B10: Table S2 C row 30 (dsDNA)
DNA 1: TGAAATTTTTCTTTTTGTGGTCAGTAATCCCAAAAA
DNA 2: TTTTTGGGATTACTGACCACAAAAAGAAAAATTTCA
B11: Table S2 C row 73 (dsDNA)
DNA 1: GTGGCACCCTCAAGGGCCACAACGGCTGGGTAACCC
DNA 2: GGGTTACCCAGCCGTTGTGGCCCTTGAGGGTGCCAC
B12: Table S2 C row 35 (dsDNA)
DNA 1: GTAGCTGTAACTGCCACCGCGATGCCGAAGGCGCCC
DNA 2: GGGCGCCTTCGGCATCGCGGTGGCAGTTACAGCTAC
B13: Table S2 C row 11 (dsDNA)
DNA 1: AGGTCCTCTGCATTCTGTGGTCACAAACCCAGAGCC
DNA 2: GGCTCTGGGTTTGTGACCACAGAATGCAGAGGACCT
B14: Table S2 C row 135 (dsDNA)
DNA 1: GGGTCCCGGGGACCCTGCGGGCTCCGAGTAGTCGTA
DNA 2: TACGACTACTCGGAGCCCGCAGGGTCCCCGGGACCC
B15: Table S2 C row 51 (dsDNA)
DNA 1: CTTGGGAGTCCCTGCCGCGGTGACTCCCTGGGAGCT
DNA 2: AGCTCCCAGGGAGTCACCGCGGCAGGGACTCCCAAG
B16: Table S2 C row 139 (dsDNA)
DNA 1: GGAGCTGCTCCAGGCTGCGGTGGGATCAAAGCTACC
DNA 2: GGTAGCTTTGATCCCACCGCAGCCTGGAGCAGCTCC
B17: Table S2 C row 62 (dsDNA)
DNA 1: GAGCATCTTGAGGTCTGTGGTTCAGCTACCAGCCCC
DNA 2: GGGGCTGGTAGCTGAACCACAGACCTCAAGATGCTC
B18: Table S2 C row 199 (dsDNA)
DNA 1: AGCTCAGGCACCAGCTGAGGTTTGGCATTTGCTGGC
DNA 2: GCCAGCAAATGCCAAACCTCAGCTGGTGCCTGAGCT
B19: Table S2 C row 126 (dsDNA)
DNA 1: TCCACGCCCCGGCGCTGCGGGCACCGAGTAAAACGC
DNA 2: GCGTTTTACTCGGTGCCCGCAGCGCCGGGGCGTGGA
B20: Table S2 C row 111 (dsDNA)
DNA 1: CCAGCTGTACTGAGTTGAGGTTTTTCTGACCCTCAG
DNA 2: CTGAGGGTCAGAAAAACCTCAACTCAGTACAGCTGG
B21: Table S2 C row 16 (dsDNA)
DNA 1: AAAAGCCCATGGGCACCCACAGCTTTGTCACAGTGC
DNA 2: GCACTGTGACAAAGCTGTGGGTGCCCATGGGCTTTT
B22: Table S2 C row 140 (dsDNA)
DNA 1: CCACGGCCCGGTGCCTGTGGTCCCCTCCCCGAGGGT
DNA 2: ACCCTCGGGGAGGGGACCACAGGCACCGGGCCGTGG
B23: Table S2 C row 185 (dsDNA)
DNA 1: GCAGAAATATGCTGAACCACAACTGAAGGTGGCTGA
DNA 2: TCAGCCACCTTCAGTTGTGGTTCAGCATATTTCTGC
B24: Table S2 C row 8 (dsDNA)
DNA 1: CCACCCGGGGCCTGGACCGCACCACGGTCACTGGCG
DNA 2: CGCCAGTGACCGTGGTGCGGTCCAGGCCCCGGGTGG
B25: Table S2 C row 169 (dsDNA)
DNA 1: TGGGCATGCGCGGCGCGCGGTTGGCACTGGCTGCGA
DNA 2: TCGCAGCCAGTGCCAACCGCGCGCCGCGCATGCCCA
B26: Table S2 C row 189 (dsDNA)
DNA 1: CCCTGGGGTCCCTTTGCCGCAGTTCCACATCTGCAG
DNA 2: CTGCAGATGTGGAACTGCGGCAAAGGGACCCCAGGG
B27: Table S2 C row 165 (dsDNA)
DNA 1: ATCAGCGTGGCTGCTGCCGCAGAACAAGCCACGCTT
DNA 2: AAGCGTGGCTTGTTCTGCGGCAGCAGCCACGCTGAT
B28: Table S2 C row 98 (dsDNA)
DNA 1: AAAACCATCTTTAGGACCGCGGCCCCTTTAAGCGGC
DNA 2: GCCGCTTAAAGGGGCCGCGGTCCTAAAGATGGTTTT
B29: Table S2 C row 66 (dsDNA)
DNA 1: TCCTGAGTGCTGGGAACCGCAGCGCCACATGCACCC
DNA 2: GGGTGCATGTGGCGCTGCGGTTCCCAGCACTCAGGA
B30: Table S2 C row 97 (dsDNA)
DNA 1: CGAGGGCGCGCGTCTCGCGGTCCATCCAGCTCAGCA
DNA 2: TGCTGAGCTGGATGGACCGCGAGACGCGCGCCCTCG
B31: Table S2 C row 53 (dsDNA)
DNA 1: CCTGGGCTGCAGGCACCCACAGTCCAGAGGCTCAAA
DNA 2: TTTGAGCCTCTGGACTGTGGGTGCCTGCAGCCCAGG
B32: Table S2 B row 614 (dsDNA)
DNA 1: GAGGACTTCCGGGTGGGTGTGATATCTACGGGCCCG
DNA 2: CGGGCCCGTAGATATCACACCCACCCGGAAGTCCTC
B33: Table S2 C row 94 (dsDNA)
DNA 1: CCCAAGCCCGCGGGCTGCGGGCGCTGATTGGGCGGC
DNA 2: GCCGCCCAATCAGCGCCCGCAGCCCGCGGGCTTGGG
B34: Table S2 B row 703 (dsDNA)
DNA 1: GCCGGGCACTTCCTGTGGAGGCCGAAGCGGGTGCGC
DNA 2: GCGCACCCGCTTCGGCCTCCACAGGAAGTGCCCGGC
B35: Table S2 C row 143 (dsDNA)
DNA 1: CGGCCCCGCTGAGGGGCCGCAAGGACGAGGACGCCT
DNA 2: AGGCGTCCTCGTCCTTGCGGCCCCTCAGCGGGGCCG
B36: Table S2 C row 61 (dsDNA)
DNA 1: TGCTCTCGGCCTGGCTGTGGGCGGGTGGCCATCAGT
DNA 2: ACTGATGGCCACCCGCCCACAGCCAGGCCGAGAGCA
B37: Table S2 C row 25 (dsDNA)
DNA 1: CCAGCCCGGCCTCGGACCGCGGCACCCCTCCTGGCC
DNA 2: GGCCAGGAGGGGTGCCGCGGTCCGAGGCCGGGCTGG
B38: Table S2 C row 195 (dsDNA)
DNA 1: GCTGCTGACTGCCCCTGAGGTTAGAGATTGACTAGA
DNA 2: TCTAGTCAATCTCTAACCTCAGGGGCAGTCAGCAGC
B39: Table S2 B row 126 (dsDNA)
DNA 1: TGGCGCTTCCTGTCGCTACCCCAGCGGCCCAGGGCC
DNA 2: GGCCCTGGGCCGCTGGGGTAGCGACAGGAAGCGCCA

For the data set, the target named is T1, ETS1. Briefly: gcPBM; 1 nM ETS1. The conditions noted are these: tags: N-terminal GST (pDEST15), kept (PMC6008103); label: surface-attached array probe.
On to B1, for which the binding signal was 335 PBM fluorescence, median of replicate spots.
For the molecule B2, the binding signal is 339 PBM fluorescence, median of replicate spots.
B3: the binding signal is 322 PBM fluorescence, median of replicate spots.
Regarding B4, the binding signal is 274 PBM fluorescence, median of replicate spots.
Regarding B5, the binding signal is 296 PBM fluorescence, median of replicate spots.
Turning to B6, the binding signal is 320 PBM fluorescence, median of replicate spots.
With B7, the binding signal was 338 PBM fluorescence, median of replicate spots.
Consider B8, for which the binding signal is 343 PBM fluorescence, median of replicate spots.
Consider B9, for which the binding signal is 340 PBM fluorescence, median of replicate spots.
Under B10 stands 339 PBM fluorescence, median of replicate spots.
Turning to B11, the binding signal is 312 PBM fluorescence, median of replicate spots.
Consider B12, for which the binding signal is 324 PBM fluorescence, median of replicate spots.
In the case of B13, the binding signal is 347 PBM fluorescence, median of replicate spots.
As for B14, the binding signal is 332 PBM fluorescence, median of replicate spots.
Under B15 stands 261 PBM fluorescence, median of replicate spots; under B16, 316 PBM fluorescence, median of replicate spots.
B17: the binding signal was 296 PBM fluorescence, median of replicate spots.
Take B18: the binding signal was 296 PBM fluorescence, median of replicate spots.
As to B19, the binding signal was 327 PBM fluorescence, median of replicate spots.
Turning to B20, the binding signal is 336 PBM fluorescence, median of replicate spots.
For B21, the binding signal was 288 PBM fluorescence, median of replicate spots.
For the molecule B22, the binding signal is 328 PBM fluorescence, median of replicate spots.
With B23, the binding signal is 345 PBM fluorescence, median of replicate spots.
With B24, the binding signal is 316 PBM fluorescence, median of replicate spots.
For the molecule B25, the binding signal is 336 PBM fluorescence, median of replicate spots.
With B26, the binding signal is 346 PBM fluorescence, median of replicate spots.
On to B27, for which the binding signal was 345 PBM fluorescence, median of replicate spots.
As to B28, the binding signal is 284 PBM fluorescence, median of replicate spots.
Consider B29, for which the binding signal is 341 PBM fluorescence, median of replicate spots.
Regarding B30, the binding signal is 331 PBM fluorescence, median of replicate spots.
Under B31 stands 318 PBM fluorescence, median of replicate spots; under B32, 17700 PBM fluorescence, median of replicate spots.
Turning to B33, the binding signal was 346 PBM fluorescence, median of replicate spots.
For the molecule B34, the binding signal is 17200 PBM fluorescence, median of replicate spots.
B35: the binding signal was 300 PBM fluorescence, median of replicate spots.
On to B36, for which the binding signal is 327 PBM fluorescence, median of replicate spots.
Take B37: the binding signal is 312 PBM fluorescence, median of replicate spots.
Take B38: the binding signal was 325 PBM fluorescence, median of replicate spots.
Turning to B39, the binding signal was 18100 PBM fluorescence, median of replicate spots.
